# Source: article doi:10.1101/2024.09.22.614354 (bioRxiv, 2024)
# Substitutions are numbered along the chain they refer to. In names and notes the source's numbering stands. Where two headings read alike, the source gives them in different places. Where no end group is shown, it is not given here. TMR = tetramethyl rhodamine dye
# T1: wild type Rb pocket domain (Rb^P) (human, UniProt P06400 380-788)
# T1 sequence: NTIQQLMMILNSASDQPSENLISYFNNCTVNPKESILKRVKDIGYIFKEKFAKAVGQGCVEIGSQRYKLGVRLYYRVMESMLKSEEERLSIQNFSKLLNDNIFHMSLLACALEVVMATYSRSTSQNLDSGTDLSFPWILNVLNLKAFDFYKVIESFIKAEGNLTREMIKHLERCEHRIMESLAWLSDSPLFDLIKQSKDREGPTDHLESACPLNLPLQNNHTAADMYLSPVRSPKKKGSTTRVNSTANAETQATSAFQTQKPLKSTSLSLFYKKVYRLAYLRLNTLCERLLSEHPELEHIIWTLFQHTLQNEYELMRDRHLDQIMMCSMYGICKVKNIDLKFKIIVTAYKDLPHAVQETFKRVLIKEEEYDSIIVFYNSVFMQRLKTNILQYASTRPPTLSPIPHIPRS
# T2: Rb^P E554K (human, UniProt P06400 380-788, E554K)
# T2 sequence: T1 sequence with E175K
# T3: Rb^P S751Y (human, UniProt P06400 380-788, S751Y)
# T3 sequence: T1 sequence with S372Y
# T4: Rb^P M704V (human, UniProt P06400 380-788, M704V)
# T4 sequence: T1 sequence with M325V
# B1: Rb^P E533K (domain or fragment)
# chain: T1 sequence with E154K
# B2: Rb^P H555Y (domain or fragment)
# chain: T1 sequence with H176Y
# B3: Rb^P I703F (domain or fragment)
# chain: T1 sequence with I324F
# B4: Rb^P K530I (domain or fragment)
# chain: T1 sequence with K151I
# B5: Rb^P K548N (domain or fragment)
# chain: T1 sequence with K169N
# B6: Rb^P R656Q (domain or fragment)
# chain: T1 sequence with R277Q
# B7: Rb^P S474I (domain or fragment)
# chain: T1 sequence with S95I
# B8: Rb^P S474R (domain or fragment)
# chain: T1 sequence with S95R
# B9: Rb^P S534R (domain or fragment)
# chain: T1 sequence with S155R
# B10: TMR-E2F1^TD (peptide of the E2F1 transactivation domain, N-labeled with tetramethyl rhodamine) (peptide)
# peptide: {TMR}-GEGIRDLFDCDFGDLTPLD
# Legend:
# Test in all cases: fluorescence polarisation
# [1] = target: TMR-E2F1^TD (peptide of the E2F1 transactivation domain, N-labeled with tetramethyl rhodamine)
# [2] = target: B10
# [3] = target: B10
# [4] = target: T1, wild type Rb pocket domain (Rb^P)
# [5] = target: T1, wild type Rb pocket domain (Rb^P); remark: listed apart in the source
# Rb^P I703F = target: B3
# Rb^P E554K = target: T2, Rb^P E554K
# Rb^P S751Y = target: T3, Rb^P S751Y
# [6] = target: T1, wild type Rb pocket domain (Rb^P); remark: listed apart in the source
# Rb^P M704V = target: T4, Rb^P M704V
molecule,measurement,setting,value
Rb^P E544K (from UniProt P06400 380-788) (domain or fragment),fold weaker binding relative to wild type,[1],34 fold
B1,fold weaker binding relative to wild type,[2],59 fold
B2,fold weaker binding relative to wild type,[2],12 fold
B3,fold weaker binding relative to wild type,[2],~5 fold
same,fold weaker binding at 37°C than at 25°C,[3],6 fold
same,fold weaker binding relative to wild type,[3],17 fold
B4,fold weaker binding relative to wild type,[2],63 fold
B5,fold weaker binding relative to wild type,[2],10 fold
B6,fold weaker binding relative to wild type,[2],13 fold
B7,fold weaker binding relative to wild type,[2],27 fold
B8,fold weaker binding relative to wild type,[2],27 fold
B9,fold weaker binding relative to wild type,[2],820 fold
B10,Kd,[4],14 nM
same,Kd,[5],22 nM
same,Kd,Rb^P I703F,94 nM
same,Kd,Rb^P E554K,1740 nM
same,Kd,Rb^P S751Y,28 nM
same,Kd,[6],17 nM
same,Kd,Rb^P M704V,46 nM
